# Values quoted from earlier work, collected in patent US5624831A, “Immobilized acetylcholinesterase stabilized by a film of gelatin or albumin containing trehalose” (priority 1994, dated 1997).
# B1: acetylcholinesterase extracted from the torpedo fish: acetylcholinesterase extracted from the torpedo fish (protein, UniProt P04058 22-564, looked up)
# Acetylcholinesterase: DDHSELLVNTKSGKVMGTRVPVLSSHISAFLGIPFAEPPVGNMRFRRPEPKKPWSGVWNASTYPNNCQQYVDEQFPGFSGSEMWNPNREMSEDCLYLNIWVPSPRPKSTTVMVWIYGGGFYSGSSTLDVYNGKYLAYTEEVVLVSLSYRVGAFGFLALHGSQEAPGNVGLLDQRMALQWVHDNIQFFGGDPKTVTIFGESAGGASVGMHILSPGSRDLFRRAILQSGSPNCPWASVSVAEGRRRAVELGRNLNCNLNSDEELIHCLREKKPQELIDVEWNVLPFDSIFRFSFVPVIDGEFFPTSLESMLNSGNFKKTQILLGVNKDEGSFFLLYGAPGFSKDSESKISREDFMSGVKLSVPHANDLGLDAVTLQYTDWMDDNNGIKNRDGLDDIVGDHNVICPLMHFVNKYTKFGNGTYLYFFNHRASNLVWPEWMGVIHGYEIEFVFGLPLVKELNYTAEEEALSRRIMHYWATFAKTGNPNEPHSQESKWPLFTTKEQKFIDLNTEPMKVHQRLRVQMCVFWNQFLPKLLNATACDGELSS
# System: acetylcholinesterase extracted from the torpedo fish
# Details: kept dry at 4° C. for longer than 7 days
molecule,measurement,value
B1,loss of enzymatic activity (in words),looses normally all its enzymatic activity
